Laboratory results: US7105647 (WISCONSIN ALUMNI RESEARCH FOUNDATION, dated 2006)

Assays:
[1] = target: T1, AH receptor nuclear translocator (ARNT), full length (human, UniProt P27540 1-789); assay: yeast two-hybrid with full-length ARNT, lacZ reporter
T1 construct: Full length: in vitro translated, expressed in yeast (PL574) or transfected; Endogenous ARNT in the Hep3B experiment; also called huARNT; hARNT
From the text: (§1) This plasmid was designated PL371, and subsequently was digested with NotI and XhoI, this fragment cloned into the corresponding sites of pSGBCU11. This clone was designated PL574. The LexAMOP fusion protein constructs were cotransformed with a yeast expression vector containing the full length AHR or ARNT into L40, a yeast strain containing integrated lacZ and HIS3 reporter genes. As controls, LexAAHR and LexAARNT were cotransformed with AHR and ARNT. The strength of interaction was visually characterized by X-Gal (5-bromo-4-chloro-3-indolyl-(-D-galactoside) plate assays, performed after three days growth on selective media (Bohen et al, Proc. Natl. Acad. Sci. USA 90: 11424–11428, 1993). To provide quantitation of the interaction strength, multiple colonies from yeast harboring each bHLH-PAS combination colonies were grown overnight in liquid media. Liquid cultures were grown for 5 hours, and assayed for lacZ activity using the Galacto-Light chemiluminescence reporter system (Tropix, Bedford, Mass.). To determine the effect of AHR agonists on these interactions, yeast were also grown on plates or in liquid culture with and without 1 μM βNF (Carver et al., J. Biol. Chem. 269: 30109–30112, 1994).
(§2) 2. Interaction of MOPs with the AHR and ARNT in vivo; Yeast two-hybrid experiments. […]

[2] = target: T2, human aryl hydrocarbon receptor (AHR), full length (human, UniProt P35869 1-848); assay: yeast two-hybrid, lacZ reporter, with and without 1 µM βNF
T2 construct: Full length in yeast (PRSAHR) and in the Hsp90 co-IP (huAHR); also called huAHR; Ah receptor
T2 sequence (looked up): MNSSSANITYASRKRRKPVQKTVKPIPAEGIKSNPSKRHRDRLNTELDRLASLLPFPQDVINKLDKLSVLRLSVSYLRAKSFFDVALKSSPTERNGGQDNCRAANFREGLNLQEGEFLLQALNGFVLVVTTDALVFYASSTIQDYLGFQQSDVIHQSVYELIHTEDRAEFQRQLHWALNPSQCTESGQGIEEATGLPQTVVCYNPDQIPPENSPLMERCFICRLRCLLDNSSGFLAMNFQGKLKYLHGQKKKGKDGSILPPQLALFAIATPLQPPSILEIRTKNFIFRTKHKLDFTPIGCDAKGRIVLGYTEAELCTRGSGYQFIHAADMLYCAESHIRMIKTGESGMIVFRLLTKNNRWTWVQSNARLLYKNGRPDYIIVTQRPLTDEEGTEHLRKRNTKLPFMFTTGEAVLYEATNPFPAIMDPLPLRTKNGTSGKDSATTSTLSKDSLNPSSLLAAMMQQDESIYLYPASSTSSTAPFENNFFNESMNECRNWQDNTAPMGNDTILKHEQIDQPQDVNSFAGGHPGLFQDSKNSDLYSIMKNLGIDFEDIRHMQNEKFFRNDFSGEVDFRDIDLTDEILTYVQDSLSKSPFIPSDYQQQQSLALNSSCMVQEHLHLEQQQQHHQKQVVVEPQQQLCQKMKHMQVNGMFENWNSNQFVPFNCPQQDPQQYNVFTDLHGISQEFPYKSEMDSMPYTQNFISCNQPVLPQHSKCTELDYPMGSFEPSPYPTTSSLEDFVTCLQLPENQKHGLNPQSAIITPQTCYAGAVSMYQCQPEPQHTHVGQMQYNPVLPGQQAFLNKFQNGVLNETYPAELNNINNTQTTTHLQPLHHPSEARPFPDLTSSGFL
From the text: as §1, §2

T1 sequence (P27540 whole entry): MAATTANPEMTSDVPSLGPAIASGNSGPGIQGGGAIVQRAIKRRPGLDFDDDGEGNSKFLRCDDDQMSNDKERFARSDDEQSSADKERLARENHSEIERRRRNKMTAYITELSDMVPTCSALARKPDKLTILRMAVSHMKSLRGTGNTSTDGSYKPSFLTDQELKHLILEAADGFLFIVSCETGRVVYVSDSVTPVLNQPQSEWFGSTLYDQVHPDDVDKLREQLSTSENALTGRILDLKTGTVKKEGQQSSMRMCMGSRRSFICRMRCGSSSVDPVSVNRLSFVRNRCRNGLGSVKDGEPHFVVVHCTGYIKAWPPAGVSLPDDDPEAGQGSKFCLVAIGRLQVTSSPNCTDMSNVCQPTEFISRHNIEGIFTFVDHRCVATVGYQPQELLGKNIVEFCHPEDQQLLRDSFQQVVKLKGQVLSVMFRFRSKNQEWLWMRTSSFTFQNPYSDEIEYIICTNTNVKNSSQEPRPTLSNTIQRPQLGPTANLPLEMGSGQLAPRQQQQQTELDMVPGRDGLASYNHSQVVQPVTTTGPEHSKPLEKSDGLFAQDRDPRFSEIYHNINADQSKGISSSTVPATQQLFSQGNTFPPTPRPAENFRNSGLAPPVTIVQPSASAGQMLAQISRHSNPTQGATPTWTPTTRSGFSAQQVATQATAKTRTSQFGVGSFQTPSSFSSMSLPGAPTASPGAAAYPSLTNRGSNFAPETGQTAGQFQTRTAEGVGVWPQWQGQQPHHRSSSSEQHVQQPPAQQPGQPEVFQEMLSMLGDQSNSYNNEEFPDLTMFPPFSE

B1: LexAMOP4 (other)
chain: MKALTARQQEVFDLIRDHISQTGMPPTRAEIAQRLGFRSPNAAEEHLKALARKGVIEIVSGASRGIRLLQEEEEGLPLVGRVAAGEPLLAQQHIEGHYQVDPSLFKPNADFLLRVSGMSMKDIGIMDGDLLAVHKTQDVRNGQVVVARIDDEVTVKRLKKQGNKVELLPENSEFKPIVVDLRQQSFTIEGLAVGVIRNGDWLMDEDEKDRAKRASRNKSEKKRRDQFNVLIKELSSMLPGNTRKMDKTTVLEEVIGFLQKHNEVSAQTEICDIQQDWKPSFLSNEEFTQLMLEALDGFIIAVTTDGSIIYVSDSITPLLGHLPSDVMDQNLLNFLPEQEHSEVYKILSSHMLVTDSPSPEYLKSDGDLEFYCHLLRGSLNPKEFPTYEYIKFVGNFRSYNNVPSPSCNGFDNTLSRPCRVPLGKEVCFIATVRLATPQFLKEMCIVDEPLEEFTSRHSLEWKFLFLDHRAPPIIGYLPFEVLGTSGYDYYHIDDLELLARCHQHLMQFGKGKSCCYRFLTKGQQWIWLQTHYYITYHQWNSKPEFIVCTHSVVSYADVRVERRQELA
notes: range 1-202; also called LexAbHLH-PAS fusion of MOP4; MOP4 bait plasmid
binding result [1]: no binding
binding result [2]: no binding
